Measurements taken from paper PMC5677552 (Traffic (Copenhagen, Denmark), 2017).

Tests used:
[1] = biological target: T1, GST-nup42-CTD/MBP-gle1-CTD^H337R/dbp5^L327V trimeric complex (Saccharomyces cerevisiae, UniProt P20449+Q12315, P20449:L327V/Q12315:H337R); test: GST pull-down, IP6-dependent complex formation; type: binding; conditions: 50 uM IP6, pH 7.5, 4 C; indirect read-out by complex formation
T1 sequence (Q12315 244-538 H337R): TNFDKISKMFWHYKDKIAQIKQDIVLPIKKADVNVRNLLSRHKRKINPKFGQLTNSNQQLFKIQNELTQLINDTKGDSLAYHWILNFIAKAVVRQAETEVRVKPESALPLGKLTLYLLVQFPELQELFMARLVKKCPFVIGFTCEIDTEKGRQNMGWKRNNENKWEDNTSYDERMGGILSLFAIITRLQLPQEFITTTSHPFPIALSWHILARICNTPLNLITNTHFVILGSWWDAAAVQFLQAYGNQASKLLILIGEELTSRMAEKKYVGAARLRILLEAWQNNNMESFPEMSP
T1 sequence (P20449 1-482 L327V): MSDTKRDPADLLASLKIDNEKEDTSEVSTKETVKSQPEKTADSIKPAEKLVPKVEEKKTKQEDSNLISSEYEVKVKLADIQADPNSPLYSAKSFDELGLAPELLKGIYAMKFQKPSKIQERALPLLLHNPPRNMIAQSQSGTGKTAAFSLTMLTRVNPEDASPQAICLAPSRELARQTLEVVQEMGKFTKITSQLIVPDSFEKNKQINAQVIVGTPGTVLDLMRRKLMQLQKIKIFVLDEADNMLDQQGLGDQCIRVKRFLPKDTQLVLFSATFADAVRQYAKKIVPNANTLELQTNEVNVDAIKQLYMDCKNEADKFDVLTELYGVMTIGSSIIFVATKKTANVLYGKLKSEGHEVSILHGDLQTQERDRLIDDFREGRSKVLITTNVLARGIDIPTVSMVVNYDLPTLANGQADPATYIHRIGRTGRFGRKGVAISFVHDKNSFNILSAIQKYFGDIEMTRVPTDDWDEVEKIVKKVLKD
T1 sequence (P49686 365-430 partner): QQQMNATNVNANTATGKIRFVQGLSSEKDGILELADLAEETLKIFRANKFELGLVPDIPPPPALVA

[2] = biological target: biotin-nup42^408–424 peptide (S. cerevisiae) (UniProt P49686); test: BLI

Kd [2] [nM] | Compound | GST pull-down, IP6-dependent complex formation (SDS-PAGE) [1]
– | O=P(O)(O)O[C@H]1[C@H](OP(=O)(O)O)[C@@H](OP(=O)(O)O)[C@H](OP(=O)(O)O)[C@@H](OP(=O)(O)O)[C@H]1OP(=O)(O)O [IP6] | complex was observed only in the presence of IP6
91.5 | MBP-gle1-CTD (from UniProt Q12315 1-538) (domain or fragment) | –
599 | MBP-gle1-CTD^QKEE>AAAA (from UniProt Q12315 1-538) (domain or fragment) | –
